The values that follow come from the DeepSol protein solubility set.

This data set in a line: soluble on expression in E. coli; label from the status in PepcDB or PDB records.
Turning to “SLMAGSFCWRMLGLVSKVGNRARCFSSVAASEEELLDFSGSELQFNSCSLHLSLHPFFNFLLGIHSCFVCKESKTDVKRCVVTQCGKFYHEACVKKYPLTVFESRGFRCPLHSCVSCHASNPSNPRPSKGKMMRCVRCPVAYHSGDACLAAGCSVIASNSIICTAHFTARKGKRHHAHVNVSWCFVCSKGGSLLCCESCPAAFHPDCLNIEMPDGSWFCNDCRAGKKLHFQDIIWVKLGNYRWWPAEVCHPKNVPPNIQKMKHEIGEFPVFFFGSKDYYWTHQARVFPYMEGDRGSRYQGVRGIGRVFKNALQEAEARFREIKLQREARETQESERKPPPYKHIKVNKPYGKVQIYTADISEIPKCNCKPTDENPCGFDSECLNRMLMFECHPQVCPAGEFCQNQCFTKRQYPETKIIKTDGKGWGLVAKRDIRKGEFVNEYVGELIDEEECMARIKHAHENDITHFYMLTIDKDRIIDAGPKGNYSRFMNHSCQPNCETLKWTVNGDTRVGLFAVCDIPAGTELTFNYNLDCLGNEKTVCRCGASNCSGFLGDRPKTSTTLSSEEKGKKTKKKTRRRRAKGEGKRQSEDECFRCGDGGQLVLCDRKFCTKAYHLSCLGLGKRPFGKWECPWHHCDVCGKPSTSFCHLCPNSFCKEHQDGTAFSCTPDGRSYCCEHDLGAASVRSTKTEKPPPEPGKPKGKRRRRRGWRRVTEGK”, the “soluble on expression in E. coli” value was “soluble”.

As for “MGSDKIHHHHHHMAVFSQYFGKLNQYKNALTQKVDNYWTLSCFQDVAAINPWLVPGQGRKTGSSIVLKNDVLVELGSPEAGSCSMTLYTNSPHQITDGWITLMGSDITEYTPKKLPFGQVIMVGGEHLTEEDYYYLLQNLNVSEMIEGYMIRSTAESIWCRISKDAAKNGFNFHVLGSVLNWHIKQILPKVKAVEIVFVTTTKEDIEELNQISKEVGEIGRRIKERIWREKGVDIYKCVPGGHCGACEDKTVCDTIRKIGAGR”, the “soluble on expression in E. coli” value is “not soluble”. As for “MTSRRLEESMGAVQMGLVNMFKGFQSKVLPPLSPKVVTEEEVNRMLTPSEFLKEMSLTTEQRLAKTRLMCRPQIIELLDMGETTHQKFSGIDLDQALFQPFPSEIIFQNYTPCEVYEVPLILRNNDKIPRLVKVVEESSPYFKVISPKDIGHKVAPGVPSIFRILFTPEENKDYAHTLTCVTEREKFIVPIKARGARAILDFPDKLNFSTCPVKYSTQKILLVRNIGNKNAVFHIKTCRPFSIEPAIGTLNVGESMQLEVEFEPQSVGDHSGRLIVCYDTGEKVFVSLYGAAIDMNIRLDKNSLTIEKTYISMANQRTITIHNRSNIIAHFLWKVFATQQEEDREKYRACDDLIKEEKDETDEFFEECITDPLLREHLSVLSRTFANQRRLVQGDSKLFFNNVFTVEPLEGDVWPNSSAEITVYFNPLEAKLYQQTIYCDILGREIRLPLRIKGEGMGPKIHFNFELLDIGKVFTGSAHCYEAILYNKGSIDALFNMTPPTSALGACFVFSPKEGIIEPSGVQAIQISFSSIILGNFEEEFLVNVNGSPEPVKLTIRGCVIGPTFHFNVPALHFGDVSFGFPHTLICSLNNTSLIPMTYKLRIPGDGLGHKSISYCEQHVDYKRPSWTKEEISSMKPKEFTISPDCGTIRPQGFAAIRVTLCSNTVQKYELALVVDVEGIGEEVLALLITARYCSPACSSPESPPSLQ”, the entry is “soluble”; as for “MDCLNIEELTRIIIKEIRDYEEKEGVKSRRKIEVPINVSARHVHLSEEHMEALFGKGYTLTPIRDLMQPGEFAAKETVIIVGPKGILPSVRILGPARKRTQVEVSKTDCYTLGIEAQVRDSGNHEGTPGCIIVGPMGAVKLEEGVIVAMRHVHMPKNLAEKIGIKDKNLLKVEVGEERKLIFENVLARVSEKFVLEMHVDTDEANAAGIKNQAKGYILL”, “not soluble”; as for “YTRRSIEKMVKTQVDSKVLDEKNKYYEQQLVTMKQTLESQRTVRHDLKNKLSPLIYLAESGKTDELVEQVQELGSLSVLGKIYADSGNITIDYIINLKLQALANKGVTIFCEINVPNDIDVVPFDLSTVLGNLIDNAAEALEYVQNEKWIGIKISYQVGFLMIQVANSFDGIVHLDNKKIISRKEDTENHGIGLTSIKKIAGKYDGEVVVQHDDKQFDVIVKLLA”, “not soluble”.
